Laboratory results as given in article PMC11432007.

Target: GABAA receptor β2 subunit extracellular domain fragment Gln25–Gly243 (human (abstract, Figure 1); 'bovine gene' in the methods) (UniProt P47870)
Test: negative staining electron microscopy; single refolded subunit fragment, dialysed into 10 mM glycine pH 10.3; 2% uranyl acetate on carbon-coated copper grid, 120 kV TEM; 2D classification in Relion from manually picked particles of 20 micrographs

stoichiometry N: 5
Substance: GABAA receptor β2 subunit extracellular domain fragment Gln25–Gly243 (from UniProt P47870 25-243) (domain or fragment)
